Assay results from US10670612B2, “Immunoassay standards and measurement of clinical biomarkers using intra-assay calibration standards” (Saladax Biomedical, Inc., priority 2010, dated 2020).
Ends that are not written are not given here.

Test: Dynamic light scattering
Assay type: physicochemical
Details: phosphate buffer pH 7.4, 25° C.
Experimental: One set was prepared at 1.0 mg/ml, the second set was prepared at 0.10 mg/ml, and stored at room temperature. Peptides were dissolved by vortexing for 1 min, and centrifuged in a microcentrifuge for 5 min at 14,000 rpm, at room temperature. For Aβ42 samples (MSD), vials containing 0.1 mg peptide were suspended in 1.0 ml buffer, and treated as above. A volume (200 μl) of each centrifuged 1.0 mg/ml stock was transferred to a 0.5 ml polypropylene tube, and provided for NMR analysis.
The absorbance spectra of all samples were recorded (220-750 nm) using a NANODROP® ND-1000 instrument, and blanked against the buffer. Dynamic light scattering analysis was conducted on the peptides in a 384 well polystyrene plate (CORNING®, type 3540) with a Wyatt DLS DynaPro plate reader. Data collection and analysis was completed using software from the manufacturer (DYNAMICS, versions 7.0.0.94 and 7.0.1.12). Each peptide was evaluated in triplicate with 30 μl loaded per well, and overlaid with 5 μl mineral oil, to minimize evaporation. Buffer blanks were also included in the analysis for comparison. After loading the plate, a transparent adhesive sealing tape cover was applied to the plate and the plate was centrifuged for 2 min at 1000 rpm. Each sample on the plate was read 30 times, 5 sec per acquisition, maintaining a temperature of 25° C. Data sets were collected on both the 1.0 mg/ml and 0.10 mg/ml samples over the course of 27 days. The adhesive cover was removed to read the samples in the plate reader, and used to cover the plate between readings over the 27 day time course.
FIGS. 7A through 7F show dynamic light scattering data. In FIGS. 7A-F, the full length Aβ42 peptide was subjected to DLS analysis and compared to four representative modified peptides. […] FIG. 7a represents the raw data accumulated for all five peptides. Shown is the intensity autocorrelation versus time. […] FIGS. 7b-7f depict the percent mass versus the radius of the peptides. Monomeric peptides would be represented by a larger percent mass at the smaller radius size.

DAEFRHDSGYEVHHQKEERPIGLMVGGVVIA (not fully specified) [GS#4, native Aβ42 amino acids (1-16)-EERP-native Aβ42 amino acids (32-42)]
% Intensity (DLS Peak 1): 3.8%
% Mass (DLS Peak 1): 97.7%
% Pd (DLS Peak 1): 3.2%
Mw-R (DLS Peak 1): 6.0 kDa
Radius (DLS Peak 1): 1.3 nm
% Intensity (DLS Peak 2): 0.6%
% Mass (DLS Peak 2): 0.2%
% Pd (DLS Peak 2): 0.0%
Mw-R (DLS Peak 2): 225.0 kDa
Radius (DLS Peak 2): 6.0 nm
% Intensity (DLS Peak 3): 5.2%
% Mass (DLS Peak 3): 0.0%
% Pd (DLS Peak 3): 4.5%
Mw-R (DLS Peak 3): 7527.0 kDa
Radius (DLS Peak 3): 27.0 nm
% Intensity (DLS Peak 4): 25.1%
% Mass (DLS Peak 4): 0.2%
% Pd (DLS Peak 4): 4.3%
Mw-R (DLS Peak 4): 283287.0 kDa
Radius (DLS Peak 4): 127.0 nm
